Columns and labels:
[1] = target: beta-arrestin 2 (UniProt P32121); conditions: 2'-F pyrimidines (2'F-C, 2'F-U); Kd assay buffer not stated separately; selection buffer F: 20 mM HEPES pH 7.4, 150 mM NaCl, 1 mM CaCl2, 1 mM MgCl2, 0.01% BSA, 37 C
[2] = target: beta-arrestin 1 (UniProt P49407); conditions: 2'-F pyrimidines (2'F-C, 2'F-U); Kd assay buffer not stated separately; selection buffer F: 20 mM HEPES pH 7.4, 150 mM NaCl, 1 mM CaCl2, 1 mM MgCl2, 0.01% BSA, 37 C
beta-arrestin 1, sequence (P49407 whole entry): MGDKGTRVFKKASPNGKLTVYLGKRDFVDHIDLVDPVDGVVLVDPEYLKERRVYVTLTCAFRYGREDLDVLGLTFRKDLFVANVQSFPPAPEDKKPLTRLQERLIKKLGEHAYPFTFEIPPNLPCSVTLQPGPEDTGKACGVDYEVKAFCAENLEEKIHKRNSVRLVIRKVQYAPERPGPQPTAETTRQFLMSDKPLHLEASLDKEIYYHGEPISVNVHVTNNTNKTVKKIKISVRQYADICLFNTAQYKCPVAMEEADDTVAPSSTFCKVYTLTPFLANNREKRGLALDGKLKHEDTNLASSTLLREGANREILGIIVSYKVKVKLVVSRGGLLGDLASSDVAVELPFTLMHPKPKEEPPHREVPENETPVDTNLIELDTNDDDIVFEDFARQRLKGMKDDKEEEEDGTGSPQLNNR

beta-arrestin 2, sequence (P32121 whole entry): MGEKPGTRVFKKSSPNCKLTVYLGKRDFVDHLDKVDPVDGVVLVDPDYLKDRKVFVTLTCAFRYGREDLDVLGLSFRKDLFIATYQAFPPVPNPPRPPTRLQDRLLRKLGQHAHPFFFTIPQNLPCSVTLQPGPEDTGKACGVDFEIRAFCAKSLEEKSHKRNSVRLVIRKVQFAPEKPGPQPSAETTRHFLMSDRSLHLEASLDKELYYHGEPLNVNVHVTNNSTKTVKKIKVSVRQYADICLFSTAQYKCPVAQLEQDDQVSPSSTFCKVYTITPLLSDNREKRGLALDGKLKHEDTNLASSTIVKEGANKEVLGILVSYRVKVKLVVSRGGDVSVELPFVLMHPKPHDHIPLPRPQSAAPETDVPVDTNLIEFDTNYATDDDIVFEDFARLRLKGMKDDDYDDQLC

Sequence | Kd [1] [µM] | Kd [2] [µM]
GGGAGGACGAUGCGGAUCCUCGUCCCGUCACGGCAGAACCACGUCAGGCCUUCAACAGACGACUCGCUGAGGAUCCGAGA [beta-arr2A3] | 0.022 | 0.749
GGGAGGACGAUGCGGAUUCCGUUAAGUAUCGCGUUAAACGCUAUGCGGACGCGUCAGACGACUCGCUGAGGAUCCGAGA [beta-arr2A1] | 0.0198 | 0.966
GGGAGGACGAUGCGGCCAGGUGUAGACAGACGUGAGAGAUUGACCUGGCAGCAGCCAGACGACUCGCUGAGGAUCCGAGA [beta-arr2A2] | 0.00413 | 2.16

Reference: paper PMC3988186
